# Measurements taken from article PMC6451106.
# B1: Ffh from E. coli (natural protein)
# chain: MFDNLTDRLSRTLRNISGRGRLTEDNVKDTLREVRMALLEADVALPVVREFINRVKEKAVGHEVNKSLTPGQEFVKIVRNELVAAMGEENQTLNLAAQPPAVVLMAGLQGAGKTTSVGKLGKFLREKHKKKVLVVSADVYRPAAIKQLETLAEQVGVDFFPSDVGQKPVDIVNAALKEAKLKFYDVLLVDTAGRLHVDEAMMDEIKQVHASINPVETLFVVDAMTGQDAANTAKAFNEALPLTGVVLTKVDGDARGGAALSIRHITGKPIKFLGVGEKTEALEPFHPDRIASRILGMGDVLSLIEDIESKVDRAQAEKLASKLKKGDGFDLNDFLEQLRQMKNMGGMASLMGKLPGMGQIPDNVKSQMDDKVLVRMEAIINSMTMKERAKPEIIKGSRKRRIAAGCGMQVQDVNRLLKQFDDMQRMMKKMKKGGMAKMMRSMKGMMPPGFPGR
# B2: Chloroplast SRP54 from Arabidopsis thaliana (natural protein)
# chain: EMFGQLTGGLEAAWSKLKGEEVLTKDNIAEPMRDIRRALLEADVSLPVVRRFVQSVSDQAVGMGVIRGVKPDQQLVKIVHDELVKLMGGEVSELQFAKSGPTVILLAGLQGVGKTTVCAKLACYLKKQGKSCMLIAGDVYRPAAIDQLVILGEQVGVPVYTAGTDVKPADIAKQGLKEAKKNNVDVVIMDTAGRLQIDKGMMDELKDVKKFLNPTEVLLVVDAMTGQEAAALVTTFNVEIGITGAILTKLDGDSRGGAALSVKEVSGKPIKLVGRGERMEDLEPFYPDRMAGRILGMGDVLSFVEKATEVMRQEDAEDLQKKIMSAKFDFNDFLKQTRAVAKMGSMTRVLGMIPGMGKVSPAQIREAEKNLLVMEAMIEVMTPEERERPELLAESPERRKRIAKDSGKTEQQVSALVAQIFQMRVKMKNLMGVMEGGSIPALSGLEDALKAEQKAPPGTARRKRKADSRKKFVESASSKPGPRGFGSGN
# B3: SRP72 (natural protein)
# chain: MASGGSGGVSVPALWSEVNRYGQNGDFTRALKTVNKILQINKDDVTALHCKVVCLIQNGSFKEALNVINTHTKVLANNSLSFEKAYCEYRLNRIENALKTIESANQQTDKLKELYGQVLYRLERYDECLAVYRDLVRNSQDDYDEERKTNLSAVVAAQSNWEKVVPENLGLQEGTHELCYNTACALIGQGQLNQAMKILQKAEDLCRRSLSEDTDGTEEDPQAELAIIHGQMAYILQLQGRTEEALQLYNQIIKLKPTDVGLLAVIANNIITINKDQNVFDSKKKVKLTNAEGVEFKLSKKQLQAIEFNKALLAMYTNQAEQCRKISASLQSQSPEHLLPVLIQAAQLCREKQHTKAIELLQEFSDQHPENAAEIKLTMAQLKISQGNISKACLILRSIEELKHKPGMVSALVTMYSHEEDIDSAIEVFTQAIQWYQNHQPKSPAHLSLIREAANFKLKYGRKKEAISDLQQLWKQNPKDIHTLAQLISAYSLVDPEKAKALSKHLPSSDSMSLKVDVEALENSAGATYIRKKGGKVTGDSQPKEQGQGDLKKKKKKKKGKLPKNYDPKVTPDPERWLPMRERSYYRGRKKGKKKDQIGKGTQGATAGASSELDASKTVSSPPTSPRPGSAATVSASTSNIIPPRHQKPAGAPATKKKQQQKKKKGGKGGW
# B4: SRP68/72 complete heterodimer (complex)
# chain 1: MAAEKQVPGGGGGGGSGGGGGSGGGGSGGGRGAGGEENKENERPSAGSKANKEFGDSLSLEILQIIKESQQQHGLRHGDFQRYRGYCSRRQRRLRKTLNFKMGNRHKFTGKKVTEELLTDNRYLLLVLMDAERAWSYAMQLKQEANTEPRKRFHLLSRLRKAVKHAEELERLCESNRVDAKTKLEAQAYTAYLSGMLRFEHQEWKAAIEAFNKCKTIYEKLASAFTEEQAVLYNQRVEEISPNIRYCAYNIGDQSAINELMQMRLRSGGTEGLLAEKLEALITQTRAKQAATMSEVEWRGRTVPVKIDKVRIFLLGLADNEAAIVQAESEETKERLFESMLSECRDAIQVVREELKPDQKQRDYILEGEPGKVSNLQYLHSYLTYIKLSTAIKRNENMAKGLQRALLQQQPEDDSKRSPRPQDLIRLYDIILQNLVELLQLPGLEEDKAFQKEIGLKTLVFKAYRCFFIAQSYVLVKKWSEALVLYDRVLKYANEVNSDAGAFKNSLKDLPDVQELITQVRSEKCSLQAAAILDANDAHQTETSSSQVKDNKPLVERFETFCLDPSLVTKQANLVHFPPGFQPIPCKPLFFDLALNHVAFPPLEDKLEQKTKSGLTGYIKGIFGFRS
# chain 2: B3 chain
# Biological target: human 80S ribosome (non-translating, Puromycin-treated monosomes) (human (endogenous in HeLa))
# Assay: MST
Molecule,Kd,EC50
B1,2300 nM,
B2,> 1200 nM,
B3,820 nM,520 nM
B4,,160 nM

# Biological target: rabbit reticulocyte ribosome-nascent chain complexes exposing an SRP-targeting signal (rabbit | not stated)
# Assay: MST
row,Molecule,Kd
1,entire recombinant SRPS/SR system as measured with RNCs (from UniProt P09132;Q9UHB9;O76094;P61011;P08240;Q9Y5M8) (complex),< 0.9 nM

# Biological target: human 80S ribosome (non-translating, Puromycin-treated monosomes) (human (endogenous in HeLa))
# Assay: MST
# Remark: another data set of the same source
Molecule,Kd,"KD1 (two-site fit, PALMIST)",KD of the first (high-affinity) binding event,concentration of saturation,stoichiometry N
SRP54MΔC (domain or fragment),100 nM,,,,
SRP54NG (domain or fragment),1650 nM,,,,
SRP54ΔC (domain or fragment),200 nM,< 100 nM,100 nM,,
SRP68/72ΔC (SRP68/72 heterodimer with the C-terminus of SRP72 truncated) (from UniProt Q9UHB9;O76094) (complex),420 nM,,,,
SRP72-RBD+C (C-terminal region of SRP72 including the RBD) (domain or fragment),920 nM,,,,
SRPS/SR complex with SRP54 (without signal sequence) (from UniProt P09132;Q9UHB9;O76094;P61011;P08240;Q9Y5M8),< 1.4 nM,,,,
SRPS/SR complex with SRP54ss (signal sequence fused to SRP54) (from UniProt P09132;Q9UHB9;O76094;P61011;P08240;Q9Y5M8),< 2 nM,,,,
SRPS/SR complex with SRP54ΔC (without signal sequence) (from UniProt P09132;Q9UHB9;O76094;P61011;P08240;Q9Y5M8),< 1.2 nM,,,,
SRαΔRBR/SRβ (from UniProt P08240;Q9Y5M8) (complex),> 7500 nM,,,,
SRαβ heterodimer (SRP receptor; full-length SRα with SRβ lacking its N-terminal TMD) (from UniProt P08240;Q9Y5M8) (complex),410 nM,,,,
"complete SRPS (SRP S domain: SRPS RNA, SRP19, SRP68/72 and full-length SRP54) (from UniProt P09132;Q9UHB9;O76094;P61011) (complex)",< 4.7 nM,,,,
"complete SRPS with SRP54ΔC (SRPS RNA, SRP19, SRP68/72 and SRP54ΔC) (from UniProt P09132;Q9UHB9;O76094;P61011) (complex)",< 4.7 nM,,,,
entire human SRP (native 7SL RNA and all six SRP proteins) (from UniProt P49458;P37108;P09132;Q9UHB9;O76094;P61011) (complex),,,,< 2.2 nM,
quaternary SRPS complex with the SRP68/72 heterodimer without the SRP72 C-terminus (RNA/SRP19/SRP68/72ΔC) (from UniProt P09132;Q9UHB9;O76094),370 nM,,,,
quaternary SRPS complex with the truncated SRP68/72–RBD constructs (RNA/SRP19/SRP68-RBD/SRP72-RBD in (from UniProt P09132 1-144),1650 nM,,,,
ternary SRPS complex (SRP RNA/SRP19/54) with full-length SRP54 (from UniProt P09132;P61011),< 4.7 nM,,,,1
